Experimental findings from paper PMC4072508, “Genome-Wide Prediction and Validation of Peptides That Bind Human Prosurvival Bcl-2 Proteins” (PLoS Computational Biology, 2014) are described below.

In this test the target is Bcl-xL, Q07817. Nature of the test: peptide SPOT array, c-Myc-tagged receptor at 1 uM or 100 nM, anti-c-Myc-Cy3.
Bcl-xL, Q07817, sequence (Q07817 1-209): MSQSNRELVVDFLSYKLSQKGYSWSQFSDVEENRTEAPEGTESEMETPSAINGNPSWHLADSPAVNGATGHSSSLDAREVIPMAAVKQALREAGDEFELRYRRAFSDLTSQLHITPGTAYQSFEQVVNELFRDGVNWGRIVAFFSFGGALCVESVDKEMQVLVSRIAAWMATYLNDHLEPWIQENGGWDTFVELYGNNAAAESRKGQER
As for LFRIRLVCTILDTCGQYFDRGSSKRK [UPF2], the SPOT signal as a fraction of Bim BH3's signal on the same receptor and array turned out to be 0.24.
Then DFMGRTFAKPDVKMADEAYCPPRFPP [OTOF], with 0.03; and MGVLAAAARCLVRGLDRMSKWTSKRG [MRPL41], with 0.42; and AERHKQEADDIVRVAKTANDTSTEAY [LAMC1], with 0.02.
Molecule LREVRESIRFLRQVGRDWVQRRREAL [CYP46A1] showed an SPOT signal as a fraction of Bim BH3's signal on the same receptor and array of 0.8.
RYRHGAPAEQDRHLADMLTTKWATLQ [PLEKHH1] gave an SPOT signal as a fraction of Bim BH3's signal on the same receptor and array of 0.71.
Consider NEEGQQFALKDHRLGRTSFRNLKNKR [RIOK2], for which the SPOT signal as a fraction of Bim BH3's signal on the same receptor and array was 1.05.
Then HRTSNVLTLSDKRFANFSGGKITKDV [USP36], with 1.11; and VIKQRRLPDQDSKLADRIQLSGRYYL [RAPGEF2], with 1.24.
Then GHDATEDARTILELARYFLKHGPKKI [XXXX], with 0.11; and SDDVQKIVEELQSLSKMLLKDVEEEK [IL31], with 0.03; and EEQLEKLIKKLRKASEGLNSTLKDHI [CCDC76], with 0.03.
Then RGRTRGWVQTDARMSRRTRGPVERAA [C6orf223], with 0.91.
As for LARIRRRIKWLQDGSQSLFGRLHNDC [VWA3B], the SPOT signal as a fraction of Bim BH3's signal on the same receptor and array amounted to 0.56.
In the case of LENYYRLADDLSNAARELRVLIDDSQ [MRS2], the SPOT signal as a fraction of Bim BH3's signal on the same receptor and array came out at 0.03.
In turn, HNQLTTVPERLSNCSRSLKNLILKNN [TLR7] came in with an SPOT signal as a fraction of Bim BH3's signal on the same receptor and array of 0.29.
ILRHKDIIDDLVKSGHKIMTACSEEE [DST] had an SPOT signal as a fraction of Bim BH3's signal on the same receptor and array of 0.03.
As to AHGVRDVSKELVGLAEHAATRLRFTK [TMEM151A], the SPOT signal as a fraction of Bim BH3's signal on the same receptor and array is 0.1.
AKIIGNNVKKLQKFASTVKMWVFEET [GPD1L] gave an SPOT signal as a fraction of Bim BH3's signal on the same receptor and array of 0.07.
In turn, RLRHDEIITLLKNVGERVVLEVEYEL [GRIP2] gave an SPOT signal as a fraction of Bim BH3's signal on the same receptor and array of 0.03.
In the case of LVNIRKDTLRLVKCAEEVKSPGEEAS [RNF157], the SPOT signal as a fraction of Bim BH3's signal on the same receptor and array was found to be 0.03.
In the case of DTIFHRAAVRLRDLGGAILRHARRQA [BRPF3], the SPOT signal as a fraction of Bim BH3's signal on the same receptor and array came out at 0.9.
For PEDLQDVGWFDHKLSQQILKKEKEKK [TLR5], the SPOT signal as a fraction of Bim BH3's signal on the same receptor and array was determined as 0.05.
For the molecule NKQLRKETESLRKIALEAQKKAKVKI, the SPOT signal as a fraction of Bim BH3's signal on the same receptor and array worked out at 0.5.
For the molecule FLRINMVSMKLLAYAMDFWSKGQLKA [PANK1], the SPOT signal as a fraction of Bim BH3's signal on the same receptor and array turned out to be 0.11.
Turning to PDGLLEFAKRLERWGRGAFGHLRLFQ [LRRC41], the SPOT signal as a fraction of Bim BH3's signal on the same receptor and array came out at 0.46.
DQEEACASRQDHSLASFSTVTARRNP [INCA1] yielded an SPOT signal as a fraction of Bim BH3's signal on the same receptor and array of 0.04.
As for DLSSTFVSLALRKVLDWPLSARREKG [TTC31], the SPOT signal as a fraction of Bim BH3's signal on the same receptor and array was determined as 0.17.
On to GQISDEVAERLMTIAYESGVNLFDTA [KCNAB1], for which the SPOT signal as a fraction of Bim BH3's signal on the same receptor and array came out at 0.02.
For KPRMSNTSFVIQHFADKVEYKCEGFL [MYO5C], the SPOT signal as a fraction of Bim BH3's signal on the same receptor and array was 0.04.
Turning to PFNIQDYAEALKNYAASIYNLSKKHD [NAALAD2], the SPOT signal as a fraction of Bim BH3's signal on the same receptor and array was 0.05.
Regarding NKQLRKETESLRKILLEAQKKAKVKI, the SPOT signal as a fraction of Bim BH3's signal on the same receptor and array came out at 0.31.
The molecule EQKVKQKAADLLEMATFLQKRVEEEE [C10orf79] showed an SPOT signal as a fraction of Bim BH3's signal on the same receptor and array of 0.02.
In turn, SSDVIAVCQSLRQMAEKCQQDPESCW [MMS19] registered an SPOT signal as a fraction of Bim BH3's signal on the same receptor and array of 0.02.
Then TFETQEDAQKILQEAEKLNYKDKKLN [BOLL], with 0.02; and NKQLRKETESDRKIALEAQKKAKVKI, with 0.32.
As to AYTMERSARQIMHTAMKYNLGLDLRT [GLUD2], the SPOT signal as a fraction of Bim BH3's signal on the same receptor and array is 0.19.
As to LGRTGQVCLFDKRGADQHALDQEQRD [ACAP3], the SPOT signal as a fraction of Bim BH3's signal on the same receptor and array was determined as 0.08.
Then NNDLSHIAGKLTYASQKYKNHIGTEI [HFM1], with 0.12; and IERMIHFGRELQAMSEQLRRDCGKNT [RANBP9], with 0.06; and YIEYLKSSDRLDEAAQRLATVVNDER [XAB2], with 0.03.
The molecule RERLRQSGERLRQSGERLRQSGERFK [MURC] yielded an SPOT signal as a fraction of Bim BH3's signal on the same receptor and array of 0.55.
With LKELDLSGNSLSHSLVKSLCKTLRRP [NLRP1], the SPOT signal as a fraction of Bim BH3's signal on the same receptor and array is 0.28.
Take VKAVDPTSGQLYGLARELSDEIQVQV [NUP210]: the SPOT signal as a fraction of Bim BH3's signal on the same receptor and array was 0.02.
The molecule RRFAKTIGKVDMQYADILSKDFPAYC [UNC13B] returned an SPOT signal as a fraction of Bim BH3's signal on the same receptor and array of 0.45.
ASKLKGAAVKLADFGLAIEVEGEQQA [CAMK2A] registered an SPOT signal as a fraction of Bim BH3's signal on the same receptor and array of 0.03.
As for YKGHREIARYLLEQGAQVNRRSAKGN [FEM1A], the SPOT signal as a fraction of Bim BH3's signal on the same receptor and array came to 1.44.
As to NRQLANMVNNLKEISQEAREGTQGER [TRIM21], the SPOT signal as a fraction of Bim BH3's signal on the same receptor and array is 0.03.
Then QNSRDPFCKAIEEVAQDLDLRIKNII [C12orf48], with 0.03.
Under ARELEEISERLEEASGATSAQIEMNK [MYH13] stands 0.02; under SRELEEISERLEEAGGATSAQIEMNK [MYH2], 0.02; under SQATGELADLIQQLSEKFGKNLNKDH [TRPC7], 0.03.
